According to the RNAGym collection of RNA variant scans (doi:10.7554/elife.80360):

B1: HDV Ribozyme (parent)
chain: GGCCGGCAUGGUCCCAGCCUCCUCGCUGGCGCCGGCUGGGCAACAUUCCGAGGGGACCGUCCCCUCGGUAAUGGCGAAUGGGACCCA

Variants of: B1
Test: self-cleavage, relative activity (ratio to wild type); higher = more cleavage; co-transcriptional

| Variant | self-cleavage |
| --- | --- |
| GGCCGGCAAGGUACCAGCCUCCUCGCUGGCGCCGGCUGGGCAACAUUCCGAGGGGACCGUCCCCUCGGUAAUGGCGAAUGGGACCCA [U9A C13A] | 0.119 |
| GGCCGGCAAGGUUCCAGCCUCCUCGCUGGCGCCGGCUGGGCAACAUUCCGAGGGGACCGUCCCCUCGGUAAUGGCGAAUGGGACCCA [U9A C13U] | 1.36 |
| GGCCGGCAAGGUCCCAGCCUCCUCGCUGGCGCCGGCUGGGCAACAUUCCGAGGGGACCGUCCCCUCGGUCAUGGCGAAUGGGACCCA [U9A A70C] | 0.767 |
| GGCCGGCAAGGUCCCAGCCUCCUCGCUGGCGCCGGCUGGGCAACAUUCCGAGGGGACCGUCCCCUCGGUUAUGGCGAAUGGGACCCA [U9A A70U] | 0.997 |
| GGCCGGCAAGGUCCCAGCCUCCUCGCUGGCGCCGGCUGGGCAACAUUCCGAGGGGUCCGUCCCCUCGGUAAUGGCGAAUGGGACCCA [U9A A56U] | 0.867 |
| GGCCGGCAAGGUCCCAGCCUCCUCGCUGGCGCCGGCUGGGCAACAUUCCGUGGGGACCGUCCCCUCGGUAAUGGCGAAUGGGACCCA [U9A A51U] | 0.914 |
| GGCCGGCAAGGUCCUAGCCUCCUCGCUGGCGCCGGCUGGGCAACAUUCCGAGGGGACCGUCCCCUCGGUAAUGGCGAAUGGGACCCA [U9A C15U] | 1.02 |
| GGCCGGCAAGGUCCGAGCCUCCUCGCUGGCGCCGGCUGGGCAACAUUCCGAGGGGACCGUCCCCUCGGUAAUGGCGAAUGGGACCCA [U9A C15G] | 0.499 |
| GGCCGGCAAGGUCCCAGCCUCCUCGCUGGCGCCGGCUGGGCAACAUUCCGAGGGGACCGUCCUCUCGGUAAUGGCGAAUGGGACCCA [U9A C63U] | 1.19 |
| GGCCGGCAAGGUCCCAGCCUCCUCGCUGGCGCCGGCUGGGCAACAUUCUGAGGGGACCGUCCCCUCGGUAAUGGCGAAUGGGACCCA [U9A C49U] | 0.831 |
| GGCCGGCAAGGUCCCAGCCUCCUCGCUGGCGCCGGCUGGGCAACAUUCCGAGGGGACCGUCCCCUCGGUAAUGGCGUAUGGGACCCA [U9A A77U] | 0.506 |
| GGCCGGCAAGGUCCCAGCCUCCUCGCUGGCGCCGGCUGGGCAACAUUCCGAGGGGACCGUCCCCUCGGUAAUGGCGCAUGGGACCCA [U9A A77C] | 0.383 |
| GGCCGGCAAGGUCCCAGCCUCCUCGCUGGCGCCGGCUGGGCAACAUUACGAGGGGACCGUCCCCUCGGUAAUGGCGAAUGGGACCCA [U9A C48A] | 1.01 |
| GGCCGGCAAGGUCCCAGCCUCCUCGCUGGCGCCGGCUGGGCAACAUUUCGAGGGGACCGUCCCCUCGGUAAUGGCGAAUGGGACCCA [U9A C48U] | 0.914 |
| GGCCGGCAAGGUCCCAGCCUCCUCGCUGGCGCCGGCUGGGCAACAUUCCGAGGGGACCGUCCCCUCGGUAAUGGGGAAUGGGACCCA [U9A C75G] | 0.0665 |
| GGCCGGCAAGGUCCCAGCCUCCUCGCUGGCGCCGGCUGGGCAACAUUCCGAGGGGACCGUCCCUUCGGUAAUGGCGAAUGGGACCCA [U9A C64U] | 1.04 |
| GGCCGGCAAGGUCCCAGCCUCCUCGCUGGCGCCGGCUGGGCAACAUUCCGAGGGGACCGUCCCGUCGGUAAUGGCGAAUGGGACCCA [U9A C64G] | 0.759 |
| GGCCGGCAAGGUCGCAGCCUCCUCGCUGGCGCCGGCUGGGCAACAUUCCGAGGGGACCGUCCCCUCGGUAAUGGCGAAUGGGACCCA [U9A C14G] | 0.604 |
| GGCCGGCAAGGUCUCAGCCUCCUCGCUGGCGCCGGCUGGGCAACAUUCCGAGGGGACCGUCCCCUCGGUAAUGGCGAAUGGGACCCA [U9A C14U] | 1.11 |
| GGCCGGCAAGGUCCCAGCCUGCUCGCUGGCGCCGGCUGGGCAACAUUCCGAGGGGACCGUCCCCUCGGUAAUGGCGAAUGGGACCCA [U9A C21G] | 0.0462 |
| GGCCGGCAAGGUCCCAGCCUACUCGCUGGCGCCGGCUGGGCAACAUUCCGAGGGGACCGUCCCCUCGGUAAUGGCGAAUGGGACCCA [U9A C21A] | 0.0739 |
| GGCCGGCAAGGUCCCAGCCUCCUCGCUGGCGCCGGCUGGGCAACAUUCCGAGGGGACCGUUCCCUCGGUAAUGGCGAAUGGGACCCA [U9A C61U] | 0.986 |

| Variant | self-cleavage |
| --- | --- |
| GGCCGGCAAGGUCCCAGCCUCCUCGCUGGCGCCGGCUGGGCAACAUUCCGAGGGGACCGUGCCCUCGGUAAUGGCGAAUGGGACCCA [U9A C61G] | 0.682 |
| GGCCGGCAAGGUCCCAGCAUCCUCGCUGGCGCCGGCUGGGCAACAUUCCGAGGGGACCGUCCCCUCGGUAAUGGCGAAUGGGACCCA [U9A C19A] | 0.194 |
| GGCCGGCAAGGUCCCAGCCUCCUCGCUGGCGCCGGCUGGGCAACAUUCCGAGGGGACCGUCCCCUCGGUAAUGGCGAAUGGGAACCA [U9A C84A] | 0.886 |
| GGCCGGCAAGGUCCCAGCCUCCUCGCUGGCGCCGGCUGGGCAACAUUCCGAGGGGACCGUCCCCUCGGUAAUGGCGAAUGGGAGCCA [U9A C84G] | 0.554 |
| GGCCGGCAAGGUCCCAGCCUCCUCGGUGGCGCCGGCUGGGCAACAUUCCGAGGGGACCGUCCCCUCGGUAAUGGCGAAUGGGACCCA [U9A C26G] | 0.623 |
| GGCCGGCAAGGUCCCAGCCUCCUCGAUGGCGCCGGCUGGGCAACAUUCCGAGGGGACCGUCCCCUCGGUAAUGGCGAAUGGGACCCA [U9A C26A] | 0.76 |
| GGCCGGCAAGGUCCCAGCCUCCUCGCUGGCGCCGGCUGGGCAACAUUCCGAGGGGACCGUCCCCUCGGUAUUGGCGAAUGGGACCCA [U9A A71U] | 0.688 |
| GGCCGGCAAGGUCCCAGCCUCCUCGCUGGCGCCGGCUGGGCAACAUUCCGAGGGGACCGUCCCCUCGGUAGUGGCGAAUGGGACCCA [U9A A71G] | 0.506 |
| GGCCGGCAAGGUCCCAGCCUCCUCGCUGGCGCCGGCUGGGCAACAUUCCGAGGGGAUCGUCCCCUCGGUAAUGGCGAAUGGGACCCA [U9A C57U] | 1.19 |
| GGCCGGCAAGGUCCCAGCCUCCUCGCUGGCGCCGGCUGGGCAACAUUCCGAGGGGAACGUCCCCUCGGUAAUGGCGAAUGGGACCCA [U9A C57A] | 1.02 |
| GGCCGGCAAGGUCCCAGCCUCCUUGCUGGCGCCGGCUGGGCAACAUUCCGAGGGGACCGUCCCCUCGGUAAUGGCGAAUGGGACCCA [U9A C24U] | 0.449 |
| GGCCGGCAAGGUCCCAGCCUCCUAGCUGGCGCCGGCUGGGCAACAUUCCGAGGGGACCGUCCCCUCGGUAAUGGCGAAUGGGACCCA [U9A C24A] | 0.914 |
| GGCCGGCAAGGUCCCAGCCUCCUGGCUGGCGCCGGCUGGGCAACAUUCCGAGGGGACCGUCCCCUCGGUAAUGGCGAAUGGGACCCA [U9A C24G] | 0.111 |
| GGCCGGCAAGGUCCCAGCCUCCUCGCUGGCGCCGGCUGGGCAACAUUCCGAGGGGACCGUCACCUCGGUAAUGGCGAAUGGGACCCA [U9A C62A] | 1.03 |
| GGCCGGCAAGGUCCCAGCCUCCUCGCUGGCGCCGGCUGGGCAACAUUCCGAGGGGACCGUCGCCUCGGUAAUGGCGAAUGGGACCCA [U9A C62G] | 0.939 |
| GGCCGGCAAGGUCCCAGCCUCCUCGCUGGCGCCGGCUGGGCAAUAUUCCGAGGGGACCGUCCCCUCGGUAAUGGCGAAUGGGACCCA [U9A C44U] | 0.95 |
| GGCCGGCAAGGUCCCAGCCUCCUCGCUGGCGCCGGCUGGGCAAAAUUCCGAGGGGACCGUCCCCUCGGUAAUGGCGAAUGGGACCCA [U9A C44A] | 0.831 |
| GGCCGGCAAGGUCCCAGCCUCCUCGCUGGCGCCGGCUGGGCAAGAUUCCGAGGGGACCGUCCCCUCGGUAAUGGCGAAUGGGACCCA [U9A C44G] | 0.914 |
| GGCCGGCAAGGUCCCAGCCUCCUCGCUGGCGCCGGCUGGGGAACAUUCCGAGGGGACCGUCCCCUCGGUAAUGGCGAAUGGGACCCA [U9A C41G] | 0.831 |
| GGCCGGCAAGGUCCCAGCCUCCUCGCUGGCGCCGGCUGGGUAACAUUCCGAGGGGACCGUCCCCUCGGUAAUGGCGAAUGGGACCCA [U9A C41U] | 1.07 |
| GGCCGGCAAGGUCCCAGCCUCCUCGCUGGCGCCGGCUGGGCAACAUUCCGAGGGGACCGUCCCCUAGGUAAUGGCGAAUGGGACCCA [U9A C66A] | 0.95 |
| GGCCGGCAAGGUCCCAGCCUCUUCGCUGGCGCCGGCUGGGCAACAUUCCGAGGGGACCGUCCCCUCGGUAAUGGCGAAUGGGACCCA [U9A C22U] | 0.831 |

| Variant | self-cleavage |
| --- | --- |
| GGCCGGCAAGGUCCCAGCCUCAUCGCUGGCGCCGGCUGGGCAACAUUCCGAGGGGACCGUCCCCUCGGUAAUGGCGAAUGGGACCCA [U9A C22A] | 0.388 |
| GGCCGGCAAGGUCCCAGCCUCCUCGCUGGCGCCGGCUGGGCAACAUUCCGAGGGGACCGUCCCCUCGGUAAUGGCGAUUGGGACCCA [U9A A78U] | 0.332 |
| GGCCGGCAAGGUCCCAGCCUCCUCGCUGGCGCCGGCUGGGCAACAUUCCGAGGGGACCGUCCCCUCGGUAAUGGCGAGUGGGACCCA [U9A A78G] | 1.04 |
| GGCCGGCAAGGUCCCAGCCUCCUCGCUGGCGCCGGCUGGGCAACAUUCCGAGGGGACCGUCCCCUCGGUAAUGGCGACUGGGACCCA [U9A A78C] | 0.359 |
| GGCCGGCAAGGUCCCAGCCUCCUCGCUGGCGACGGCUGGGCAACAUUCCGAGGGGACCGUCCCCUCGGUAAUGGCGAAUGGGACCCA [U9A C32A] | 0.0898 |
| GGCCGGCAAGGUCCCAGCCUCCUCGCUGGCGUCGGCUGGGCAACAUUCCGAGGGGACCGUCCCCUCGGUAAUGGCGAAUGGGACCCA [U9A C32U] | 0.911 |
| GGCCGGCAAGGUCCCAGCCUCCUCGCUGGCGCCGGCUGGGCAACAUUCCGAGGGGACCGUCCCCUCGGUAAUGGCGAAUGGGACCCU [U9A A87U] | 1.03 |
| GGCCGGCAAGGUCCCAGCCUCCUCGCUGGCGCCGGCUGGGCAACAUUCCGAGGGGACCGUCCCCUCGGUAAUGGCGAAUGGGACCCC [U9A A87C] | 1.04 |
| GGCCGGCAAGGUCCCAGCCUCCUCGCUGGCGCCGGCUGGGCAACAUUCCGAGGGGACCGUCCCCUCGGUAAUGGCGAAUGGGACCCG [U9A A87G] | 1.13 |
| GGCCGGCAAGGUCCCAGCCUCCUCGCUGGCGCCGGCUGGGCAACAUUCCGAGGGGACAGUCCCCUCGGUAAUGGCGAAUGGGACCCA [U9A C58A] | 0.789 |
| GGCCGGCAAGGUCCCAGCCUCCUCGCUGGCGCCGGCUGGGCAACAUUCCGAGGGGACUGUCCCCUCGGUAAUGGCGAAUGGGACCCA [U9A C58U] | 0.77 |
| GGCCGGCAAGGUCCCAGCCUCCUCGCUGGCGCCGGCUGGGCAACAUUCCGAGGGGACGGUCCCCUCGGUAAUGGCGAAUGGGACCCA [U9A C58G] | 0.929 |
| GGCCGGCAAGGUCCCAGCCUCCUCGCUGGCGCAGGCUGGGCAACAUUCCGAGGGGACCGUCCCCUCGGUAAUGGCGAAUGGGACCCA [U9A C33A] | 0.185 |
| GGCCGGCAAGGUCCCAGCCUCCUCGCUGGCGCUGGCUGGGCAACAUUCCGAGGGGACCGUCCCCUCGGUAAUGGCGAAUGGGACCCA [U9A C33U] | 0.808 |
| GGCCGGCAAGGUCCCAGCCUCCUCGCUGGCGCGGGCUGGGCAACAUUCCGAGGGGACCGUCCCCUCGGUAAUGGCGAAUGGGACCCA [U9A C33G] | 0.0692 |
| GGCCGGCAAGGUCCCAGCCUCCUCGCUGGUGCCGGCUGGGCAACAUUCCGAGGGGACCGUCCCCUCGGUAAUGGCGAAUGGGACCCA [U9A C30U] | 0.776 |
| GGCCGGCAAGGUCCCAGCCUCCUCGCUGGAGCCGGCUGGGCAACAUUCCGAGGGGACCGUCCCCUCGGUAAUGGCGAAUGGGACCCA [U9A C30A] | 0.732 |
| GGCCGGCAAGGUCCCAGCCUCCUCGCUGGGGCCGGCUGGGCAACAUUCCGAGGGGACCGUCCCCUCGGUAAUGGCGAAUGGGACCCA [U9A C30G] | 0.138 |
| GGCCGGCAAGGUCCCAGCCUCCUCGCUGGCGCCGGCUGGGCAACAUUCCGAGGGGACCGUCCCCUCGGUAAUGGCGAAUGGGUCCCA [U9A A83U] | 0.643 |
| GGCCGGCAAGGUCCCAGCCUCCUCGCUGGCGCCGGCUGGGCAACAUUCCGAGGGGACCGUCCCCUCGGUAAUGGCGAAUGGGGCCCA [U9A A83G] | 0.67 |
